# Measured values reported in US20240270834A1 (Hoffmann-La Roche, published 2024).
# Numbering of substitutions follows the chain as printed.
# T1: VEGF (UniProt P15692-9 27-147, limits assumed)
# T1 sequence (looked up): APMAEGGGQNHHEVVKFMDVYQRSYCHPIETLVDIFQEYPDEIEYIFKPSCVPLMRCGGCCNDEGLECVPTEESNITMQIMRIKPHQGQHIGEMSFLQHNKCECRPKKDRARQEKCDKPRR
# T2: angiopoietin-2 (UniProt O15123 68-496, limits assumed)
# T2 sequence (looked up): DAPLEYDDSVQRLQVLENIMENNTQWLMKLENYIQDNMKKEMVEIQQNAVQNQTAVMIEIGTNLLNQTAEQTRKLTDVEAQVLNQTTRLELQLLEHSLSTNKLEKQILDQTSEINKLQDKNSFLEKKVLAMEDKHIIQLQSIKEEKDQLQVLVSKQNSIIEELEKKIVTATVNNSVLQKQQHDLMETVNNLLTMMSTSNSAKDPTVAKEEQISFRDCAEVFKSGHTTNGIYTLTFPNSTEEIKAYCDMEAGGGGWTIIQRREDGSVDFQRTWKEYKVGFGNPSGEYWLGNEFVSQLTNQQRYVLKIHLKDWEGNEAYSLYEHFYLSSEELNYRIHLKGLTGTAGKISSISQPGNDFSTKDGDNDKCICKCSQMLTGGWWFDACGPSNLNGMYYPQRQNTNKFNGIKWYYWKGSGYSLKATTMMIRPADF
# B1: Ophthabody variant VII (bispecific antibody)
# chain 1: not shown
# chain 2: EVQLVESGGGLVQPGGSLRLSCAASGYDFTHYGMNWVRQAPGKGLEWVGWINTYTGEPTYAADFKRRFTFSLDTSKSTAYLQMNCLRAEDTAVYYCAKYPYYYGTSHWYFDVWGQGTLVTVSSGGGPREPQVYTLPPCRDELTKNQVSLWCLVKGFYPSDIAVEWESNGQPENNYKTTPPVLDSDGSFFLYSKLTVDKSRWQQGNVFSCSVMHEALCNHYTQKSLSLSGGGDIQLTQSPSSLSASVGDRVTITCSASQDISNYLNWYQQKPGKAPKVLIYFTSSLHSGVPSRFSGSGSGTDFTLTISSLQPEDFATYYCQQYSTVPWTFGQGTKVEIKGS
# B2: Ophthabody variant III (bispecific antibody)
# chain 1: not shown
# chain 2: EVQLVESGGGLVQPGGSLRLSCAASGYDFTHYGMNWVRQAPGKGLEWVGWINTYTGEPTYAADFKRRFTFSLDTSKSTAYLQMNSLRAEDTAVYYCAKYPYYYGTSHWYFDVWGQGTLVTVSSGGGGSPREPQVYTLPPCRDELTKNQVSLWCLVKGFYPSDIAVEWESNGQPENNYKTTPPVLDSDGSFFLYSKLTVDKSRWQQGNVFSCSVMHEALHNHYTQKSLSLSGGGGSDIQLTQSPSSLSASVGDRVTITCSASQDISNYLNWYQQKPGKAPKVLIYFTSSLHSGVPSRFSGSGSGTDFTLTISSLQPEDFATYYCQQYSTVPWTFGQGTKVEIKAS
# B3: Ophthabody variant IV (bispecific antibody)
# chain 1: not shown
# chain 2: B2 chain 2 with A343G
# B4: Ophthabody variant II (bispecific antibody)
# chain 1: not shown
# chain 2: B1 chain 2 with C85S, C217H
# B5: Ophthabody variant VI (bispecific antibody)
# chain 1: not shown
# chain 2: B1 chain 2 with C85S, G125P, G126P, P127S, C217H, G229P, G230P
# B6: Ophthabody variant I (bispecific antibody)
# chain 1: not shown
# chain 2: B1 chain 2 with C85S, C217H, G339A
# B7: Ophthabody variant V (bispecific antibody)
# chain 1: not shown
# chain 2: B1 chain 2 with C85S, G124P, C217H, G230P
# Molecular target: T1, VEGF
# Assay: cell-based or functional assay
row,Binder,"EC50, luciferase assay (reporter gene assay) [nM]"
1,B1,2.1

# Molecular target: T2, angiopoietin-2
# Assay: cell-based or functional assay
row,Binder,"EC50, kinase receptor activation assay [nM]"
1,B2,19
2,B3,13
3,B4,18
4,B5,18
5,B6,21
6,B7,14
7,B1,23
